Experimental findings from patent US11267868 (dated 2022) are described below.

Holding throughout (experiment): SPR
One test deals with T1, FcgRIa (human, UniProt P12314).
T1 chain: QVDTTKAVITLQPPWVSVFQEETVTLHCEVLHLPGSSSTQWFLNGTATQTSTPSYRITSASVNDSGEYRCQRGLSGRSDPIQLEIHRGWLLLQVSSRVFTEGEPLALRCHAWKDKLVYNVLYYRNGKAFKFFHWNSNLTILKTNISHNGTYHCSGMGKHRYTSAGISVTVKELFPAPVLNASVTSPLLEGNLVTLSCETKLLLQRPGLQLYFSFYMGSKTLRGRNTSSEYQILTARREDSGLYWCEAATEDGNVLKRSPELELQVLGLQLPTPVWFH

For the next test, the target named is FcgRIIIaV (human, UniProt P08637).
FcgRIIIaV, sequence (P08637 17-208 F176V): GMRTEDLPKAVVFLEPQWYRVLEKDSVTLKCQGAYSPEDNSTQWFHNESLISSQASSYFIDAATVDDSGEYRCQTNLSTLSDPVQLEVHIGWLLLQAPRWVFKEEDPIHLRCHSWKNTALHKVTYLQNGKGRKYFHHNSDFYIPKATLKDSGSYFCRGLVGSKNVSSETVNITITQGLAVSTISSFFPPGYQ
The target in the next test is T2, FcgRIIb (human, UniProt P31994).
T2 chain: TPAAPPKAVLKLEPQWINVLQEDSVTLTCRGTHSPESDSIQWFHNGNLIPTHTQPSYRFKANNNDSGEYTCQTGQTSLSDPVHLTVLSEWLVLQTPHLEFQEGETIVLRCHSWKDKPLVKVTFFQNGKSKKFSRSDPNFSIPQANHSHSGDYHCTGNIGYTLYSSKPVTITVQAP

In the next test the target is T3, FcgRIIaR (human, UniProt P12318).
T3 chain: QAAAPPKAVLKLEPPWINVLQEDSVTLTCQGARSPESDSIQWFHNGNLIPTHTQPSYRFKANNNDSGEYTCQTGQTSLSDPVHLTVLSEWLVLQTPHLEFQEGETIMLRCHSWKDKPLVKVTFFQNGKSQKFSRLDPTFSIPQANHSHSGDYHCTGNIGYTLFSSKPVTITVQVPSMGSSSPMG

A further test has as its target T4, FcgRIIaH (human, UniProt P12318).
T4 chain: T3 chain with R134H

Residue numbers refer to the chain shown, from its start.

B1: IL6R-P729/IL6R-L (antibody)
chain 1: QVQLQESGPGLVKPSETLSLTCAVSGHSISHDHAWSWVRQPPGEGLEWIGFISYSGITNYNPSLQGRVTISRDNSKNTLYLQMNSLRAEDTAVYYCARSLARTTAMDYWGEGTLVTVSSASTKGPSVFPLAPSSKSTSGGTAALGCLVKDYFPEPVTVSWNSGALTSGVHTFPAVLQSSGLYSLSSVVTVPSSSLGTQTYICNVNHKPSNTKVDKKVEPKSCDKTHTCPPCPAPELFGQDSVMLFPPKPKDTLMISRTPEVTCVVVDVSPEDPEVKFNWYVDGVEVHNAKTKPREEQENSTYRVVSVLTVLHQDWLNGKEYKCKVSNKALPAPIEKTISKAKGQPREPQVYTLPPSRDELTKNQVSLTCLVKGFYPSDIAVEWESNGQPENNYKTTPPVLDSDGSFFLYSKLTVDKSRWQQGNVFSCSVMHEALHNHYTQKSLSLSP
chain 2: not shown
Take B1: the Kd was 0.66 µM in the test with FcgRIa; 56 µM with FcgRIIIaV; 4.4 µM with FcgRIIb; 83 µM with FcgRIIaR; 180 µM in the test with FcgRIIaH.

B2: IL6R-P692/IL6R-L (antibody)
chain 1: B1 chain 1 with P270H, A332H
chain 2: not shown
In the case of B2, the Kd worked out at 0.53 µM with FcgRIa; 57 µM with FcgRIIIaV; 2.7 µM with FcgRIIb; 56 µM with FcgRIIaR; 120 µM in the test with FcgRIIaH.

B3: IL6R-P737/IL6R-L (antibody)
chain 1: B1 chain 1 with F237L, S326H, A332H
chain 2: not shown
Take B3: the Kd in the test with FcgRIa was found to be 0.17 µM; with FcgRIIIaV, 68 µM; with FcgRIIb, 6.4 µM; with FcgRIIaR it was 120 µM; with FcgRIIaH, 160 µM.

B4: IL6R-P656/IL6R-L (antibody)
chain 1: B1 chain 1 with F237L, Q239G, P270H, A332H
chain 2: not shown
Take B4: the Kd with FcgRIa was 0.028 µM; with FcgRIIIaV, 50 µM; with FcgRIIb it was 1.9 µM; with FcgRIIaR it was 39 µM; in the test with FcgRIIaH, 84 µM.

B5: IL6R-P603/IL6R-L (antibody)
chain 1: B1 chain 1 with F237L, Q239G, P270H, V325I
chain 2: not shown
With B5, the Kd came out at 0.022 µM in the test with FcgRIa; 83 µM in the test with FcgRIIIaV; 2.7 µM in the test with FcgRIIb; 47 µM with FcgRIIaR; 110 µM with FcgRIIaH.

B6: IL6R-P693/IL6R-L (antibody)
chain 1: B1 chain 1 with F237L, Q239G, M243F, P270H, S300A
chain 2: not shown
Regarding B6, the Kd in the test with FcgRIa turned out to be 0.0078 µM; in the test with FcgRIIIaV, 40 µM; with FcgRIIb, 5.6 µM; with FcgRIIaR, 68 µM; with FcgRIIaH, 150 µM.

B7: IL6R-P726/IL6R-L (antibody)
chain 1: B1 chain 1 with F237L, P270H, S326H, A332H
chain 2: not shown
In the case of B7, the Kd with FcgRIa came out at 0.19 µM; in the test with FcgRIIIaV it was 36 µM; with FcgRIIb it was 4.1 µM; in the test with FcgRIIaR it was 66 µM; with FcgRIIaH it was 61 µM.

B8: IL6R-P602/IL6R-L (antibody)
chain 1: B1 chain 1 with F237L, Q239G, P270H, Q297V
chain 2: not shown
Take B8: the Kd came to 0.019 µM in the test with FcgRIa; 61 µM in the test with FcgRIIIaV; 2.4 µM in the test with FcgRIIb; 44 µM with FcgRIIaR; 100 µM with FcgRIIaH.

B9: IL6R-P688/IL6R-L (antibody)
chain 1: B1 chain 1 with F237L, Q239G, S326N
chain 2: not shown
Take B9: the Kd was 44 µM in the test with FcgRIIIaV, 4.1 µM with FcgRIIb, 58 µM with FcgRIIaR and 110 µM with FcgRIIaH.

B10: IL6R-P687/IL6R-L (antibody)
chain 1: B1 chain 1 with F237L, Q239G, M243F, P270H, E298Y, S300A, S326N, A332H
chain 2: not shown
B10: the Kd in the test with FcgRIa is 0.007 µM; with FcgRIIIaV it was 42 µM; with FcgRIIb it was 5.1 µM; with FcgRIIaR, 81 µM; with FcgRIIaH it was 130 µM.

B11: IL6R-P658/IL6R-L (antibody)
chain 1: B1 chain 1 with Q239G, P270H
chain 2: not shown
B11: the Kd came out at 0.83 µM with FcgRIa; 71 µM with FcgRIIIaV; 1.4 µM with FcgRIIb; 33 µM in the test with FcgRIIaR; 96 µM with FcgRIIaH.

B12: IL6R-P604/IL6R-L (antibody)
chain 1: B1 chain 1 with F237L, Q239G, P270H, S300A
chain 2: not shown
For B12, the dissociation constant (Kd) with FcgRIIIaV came out at 40 µM; in the test with FcgRIIb, 5.5 µM; with FcgRIIaR, 64 µM; with FcgRIIaH it was 120 µM.

B13: IL6R-P657/IL6R-L (antibody)
chain 1: B1 chain 1 with F237L, Q239G, P270H, A332Y
chain 2: not shown
Turning to B13, the Kd with FcgRIa was 0.017 µM; in the test with FcgRIIIaV it was 65 µM; with FcgRIIb, 3.1 µM; with FcgRIIaR, 47 µM; with FcgRIIaH, 110 µM.

B14: IL6R-P731/IL6R-L (antibody)
chain 1: B1 chain 1 with F237L, S326H
chain 2: not shown
For the molecule B14, the dissociation constant (Kd) with FcgRIa came out at 0.068 µM; with FcgRIIIaV it was 53 µM; in the test with FcgRIIb it was 10 µM; in the test with FcgRIIaR it was 110 µM; with FcgRIIaH, 150 µM.

B15: IL6R-P605/IL6R-L (antibody)
chain 1: B1 chain 1 with F237L, Q239G, M243F, P270H, E298D, S300A
chain 2: not shown
B15: the Kd with FcgRIa is 0.0086 µM; with FcgRIIIaV, 44 µM; with FcgRIIb it was 5.3 µM; in the test with FcgRIIaR, 60 µM; with FcgRIIaH, 130 µM.

B16: IL6R-P728/IL6R-L (antibody)
chain 1: B1 chain 1 with P270H, S326H
chain 2: not shown
For the molecule B16, the dissociation constant Kd came out at 0.58 µM with FcgRIa; 50 µM in the test with FcgRIIIaV; 3.9 µM with FcgRIIb; 74 µM with FcgRIIaR; 81 µM with FcgRIIaH.

B17: IL6R-P659/IL6R-L (antibody)
chain 1: B1 chain 1 with F237L, P270H
chain 2: not shown
With B17, the Kd turned out to be 0.08 µM with FcgRIa; 73 µM with FcgRIIIaV; 6.4 µM with FcgRIIb; 85 µM with FcgRIIaR; 160 µM with FcgRIIaH.

B18: IL6R-P655/IL6R-L (antibody)
chain 1: B1 chain 1 with F237L, Q239G, P270H, S326H
chain 2: not shown
On to B18, for which the Kd with FcgRIa is 0.018 µM; in the test with FcgRIIIaV, 46 µM; with FcgRIIb, 2.7 µM; with FcgRIIaR, 42 µM; in the test with FcgRIIaH it was 58 µM.

B19: IL6R-P735/IL6R-L (antibody)
chain 1: B1 chain 1 with A332H
chain 2: not shown
Turning to B19, the Kd was determined as 0.26 µM with FcgRIa; 73 µM with FcgRIIIaV; 2.3 µM with FcgRIIb; 59 µM with FcgRIIaR; 140 µM with FcgRIIaH.

B20: IL6R-P654/IL6R-L (antibody)
chain 1: B1 chain 1 with F237L, Q239G, P270H, S326N
chain 2: not shown
On to B20, for which the Kd came to 0.016 µM with FcgRIa; 48 µM in the test with FcgRIIIaV; 2.6 µM with FcgRIIb; 39 µM with FcgRIIaR; 68 µM with FcgRIIaH.

B21: IL6R-P689/IL6R-L (antibody)
chain 1: B1 chain 1 with F237L, Q239G, S326H
chain 2: not shown
As for B21, the Kd in the test with FcgRIa was 0.028 µM; in the test with FcgRIIIaV it was 52 µM; in the test with FcgRIIb, 4.7 µM; with FcgRIIaR, 78 µM; with FcgRIIaH, 120 µM.
